Laboratory results from patent US10702592B2, “Peptides and combination of peptides for use in immunotherapy against NHL and other cancers” (Immatics Biotechnologies GmbH, priority 2016, dated 2020).

These substances were tested against HLA-A*02:01 (Homo sapiens, UniProt P04439, D140Y/D185E/D98H/E176V/E277Q/G131W/G231S/I119V/I121R/I166T/I218V/L300P/L318F/N151K/N90K/P208A/P217A/Q86G/Q94H/R138H/R169H/T345S) (assay: MHC binding assay (UV-ligand exchange, beta2m ELISA)). Conditions: binding to HLA-A*02:01, UV-ligand exchange.
How it was run: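 Exchange yield, UV-ligand exchange: 100-fold diluted samples on streptavidin plates, 1 h at 37 °C; HRP anti-β2m 1 h at 37 °C; TMB read at 450 nm.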

Substance | Peptide exchange (MHC class I binding score, peptide exchange yield)
201 (YLNISQVNV; listed as Homo sapiens) [compound 201] | “+++” (≥50 = +++)
202 (ALAAGGYDV; listed as Homo sapiens) [compound 202] | “++” (≥20% = ++)
203 (ILDTIFHKV; listed as Homo sapiens) [compound 203] | “+++” (≥50 = +++)
204 (RLCDIVVNV; listed as Homo sapiens) [compound 204] | “++” (≥20% = ++)
205 (TLFYESPHL; listed as Homo sapiens) [compound 205] | “+++” (≥50 = +++)
206 (SAVSGQWEV; listed as Homo sapiens) [compound 206] | “++” (≥20% = ++)
207 (GLVGLLEQA; listed as Homo sapiens) [compound 207] | “++++” (≥75% = ++++)
208 (FLAVSLPLL; listed as Homo sapiens) [compound 208] | “+++” (≥50 = +++)
209 (FLLDTISGL; listed as Homo sapiens) [compound 209] | “+++” (≥50 = +++)
210 (FLAEQFEFL; listed as Homo sapiens) [compound 210] | “+++” (≥50 = +++)
211 (FIDDLFAFV; listed as Homo sapiens) [compound 211] | “+++” (≥50 = +++)
212 (FLIGQGAHV; listed as Homo sapiens) [compound 212] | “+++” (≥50 = +++)
213 (YINEDEYEV; listed as Homo sapiens) [compound 213] | “++” (≥20% = ++)
214 (FLFDGSMSL; listed as Homo sapiens) [compound 214] | “+++” (≥50 = +++)
215 (QLFEEEIEL; listed as Homo sapiens) [compound 215] | “++” (≥20% = ++)
216 (KVVSNLPAI; listed as Homo sapiens) [compound 216] | “++” (≥20% = ++)
217 (AQFGAVLEV; listed as Homo sapiens) [compound 217] | “+++” (≥50 = +++)
218 (ALDQFLEGI; listed as Homo sapiens) [compound 218] | “+++” (≥50 = +++)
219 (ALLELENSV; listed as Homo sapiens) [compound 219] | “++” (≥20% = ++)
220 (FLAEAPTAL; listed as Homo sapiens) [compound 220] | “++” (≥20% = ++)
221 (FLAPDNSLLLA; listed as Homo sapiens) [compound 221] | “++++” (≥75% = ++++)
222 (FLIETGTLL; listed as Homo sapiens) [compound 222] | “+++” (≥50 = +++)
223 (FLQDIPDGLFL; listed as Homo sapiens) [compound 223] | “++” (≥20% = ++)
224 (FLSPLLPLL; listed as Homo sapiens) [compound 224] | “++” (≥20% = ++)
226 (GVIDPVPEV; listed as Homo sapiens) [compound 226] | “++” (≥20% = ++)
227 (IIAEGIPEA; listed as Homo sapiens) [compound 227] | “++” (≥20% = ++)
228 (IIAEYLSYV; listed as Homo sapiens) [compound 228] | “++” (≥20% = ++)

Other lines, results leading:

Peptide exchange (MHC class I binding score, peptide exchange yield) | Substance
“++++” (≥75% = ++++) | 229 (ILSPWGAEV; listed as Homo sapiens) [compound 229]
“++” (≥20% = ++) | 230 (IMDDDSYGV; listed as Homo sapiens) [compound 230]
“+++” (≥50 = +++) | 231 (IVMGAIPSV; listed as Homo sapiens) [compound 231]
“++” (≥20% = ++) | 232 (KVMEGTVAA; listed as Homo sapiens) [compound 232]
“+++” (≥50 = +++) | 233 (MLEVHIPSV; listed as Homo sapiens) [compound 233]
“++” (≥20% = ++) | 234 (NLQRTVVTV; listed as Homo sapiens) [compound 234]
“+++” (≥50 = +++) | 235 (SLDVYELFL; listed as Homo sapiens) [compound 235]
“++++” (≥75% = ++++) | 236 (SLFDGFFLTA; listed as Homo sapiens) [compound 236]
“+++” (≥50 = +++) | 237 (YLDRLIPQA; listed as Homo sapiens) [compound 237]
“+++” (≥50 = +++) | 238 (YQYGAVVTL; listed as Homo sapiens) [compound 238]
“+++” (≥50 = +++) | 239 (VLIDDTVLL; listed as Homo sapiens) [compound 239]
“+++” (≥50 = +++) | 240 (ALVPTPALFYL; listed as Homo sapiens) [compound 240]
“++” (≥20% = ++) | 241 (FIPDFIPAV; listed as Homo sapiens) [compound 241]
“++++” (≥75% = ++++) | 242 (GILDFZVFL; listed as Homo sapiens) [compound 242]
“++++” (≥75% = ++++) | 243 (GLPDLDIYL; listed as Homo sapiens) [compound 243]
“+++” (≥50 = +++) | 244 (ILEPFLPAV; listed as Homo sapiens) [compound 244]
“+++” (≥50 = +++) | 245 (KLIQLPVVYV; listed as Homo sapiens) [compound 245]
“+++” (≥50 = +++) | 246 (KLPVPLESV; listed as Homo sapiens) [compound 246]
“+++” (≥50 = +++) | 247 (KVLEMETTV; listed as Homo sapiens) [compound 247]
“+++” (≥50 = +++) | 248 (NLLEQFILL; listed as Homo sapiens) [compound 248]

Peptide exchange (MHC class I binding score, peptide exchange yield) | Substance
“++++” (≥75% = ++++) | 249 (VLLESLVEI; listed as Homo sapiens) [compound 249]
“+++” (≥50 = +++) | 250 (VLTNVGAAL; listed as Homo sapiens) [compound 250]
“+++” (≥50 = +++) | 251 (VLYELFTYI; listed as Homo sapiens) [compound 251]
“+++” (≥50 = +++) | 252 (YLGDLIMAL; listed as Homo sapiens) [compound 252]
“++++” (≥75% = ++++) | 255 (GMWNPNAPVFL; listed as Homo sapiens) [compound 255]
“++++” (≥75% = ++++) | 257 (FLQEWEVYA; listed as Homo sapiens) [compound 257]
“++++” (≥75% = ++++) | 259 (TVLDGLEFKV; listed as Homo sapiens) [compound 259]
“+++” (≥50 = +++) | 263 (GLMDNEIKV; listed as Homo sapiens) [compound 263]
“+++” (≥50 = +++) | 264 (ILTGTPPGV; listed as Homo sapiens) [compound 264]
“++++” (≥75% = ++++) | 265 (ILWHFVASL; listed as Homo sapiens) [compound 265]
“++++” (≥75% = ++++) | 266 (QLTEMLPSI; listed as Homo sapiens) [compound 266]
“+++” (≥50 = +++) | 267 (SLLETGSDLLL; listed as Homo sapiens) [compound 267]
“++++” (≥75% = ++++) | 268 (VLFPLPTPL; listed as Homo sapiens) [compound 268]
“++++” (≥75% = ++++) | 269 (VLQNVAFSV; listed as Homo sapiens) [compound 269]
“++++” (≥75% = ++++) | 270 (VVVDSDSLAFV; listed as Homo sapiens) [compound 270]
“++++” (≥75% = ++++) | 271 (YLLDQPVLEQRL; listed as Homo sapiens) [compound 271]
“++++” (≥75% = ++++) | 272 (KLDHTLSQI; listed as Homo sapiens) [compound 272]
“++” (≥20% = ++) | 273 (AILLPQPPK; listed as Homo sapiens) [compound 273]
“++++” (≥75% = ++++) | 274 (KLLNLISKL; listed as Homo sapiens) [compound 274]
“++++” (≥75% = ++++) | 275 (KLMDLEDCAL; listed as Homo sapiens) [compound 275]
